Experiment: label from the status in PepcDB records

Sequence	protein production
MKKKLKLTSLLGLSLLIMTACATNGVTSDITAESADFWSKLVYFFAEIIRFLSFDISIGVGIILFTVLIRTVLLPVFQVQMVASRKMQEAQPRIKALREQYPGRDMESRTKLEQEMRKVFKEMGVRQSDSLWPILIQMPVILALFQALSRVDFLKTGHFLWINLGSVDTTLVLPILAAVFTFLSTWLSNKALSERNGATTAMMYGIPVLIFIFAVYAPGGVALYWTVSNAYQVLQTYFLNNPFKIIAEREAVVQAQKDLENRKRKAKKKAQKTK	failed
MVKSFPKGKHRQRIRLWLGSLVLAALLVGGGLFSWYHWRSPSLKPLYTLTVEAPPQTLPELEQWAQSADLLKRDRARYLLAVESLSQRQPQVALQWLQNLEQTYRPMAAPILLLRAEAYRQQGDSRRAQETWEQLLRDYGSEPEAAIALLSLNQPQRAIARFPQHPAVVHYVAQQLEKNPDQVPYLKLVARYGLFLQGYGTYLEILRQRYADQLTPADWEAIAFGYWEKMQYAPAAEAYAKARPTPLNLYRVGRGRQLSGERTGAIAAYQALIQRFPNSSEAALAQLRLARLAKTAAERLPLLAKCLQLATENQAPAIAADALLEQYQAYRELGNTKGAQQSQQQLFKTYPQSSAAAELRWQLAQGAAQKRQWSQAQQWVREILKFNPESELAARAAFWQGKWQGEAGQPQAQRQTWQLVTERYPHTYYAWRAASLLQKPVGTFTTLRQQRPSVAGDRQPLLPLATGSPTLQELYLLRQFQEAWQRWQWEFQNRVTPTAAEQLTDGLIRLGVGEYLDGIFMLQNLFTRAAREPQVATFFAPIRRDLRFWYALYPLPYWELVKKWSLAHNLNPLLVMALIRQESRFEKDIRSVVGATGLMQLMPETAAWIAQQLNLEDYSLVDPEHNIRLGTWYFDYTHNQYNQNTLLALASYNAGPGNVSQWLERFDIGDSDRFVESIPFPETYGYVKSVLENYWNYWQLYAQP	failed
SYLPKHESVTLKNGLQVVSVPLENKTGVIEVDVLYKVGSRNETMGKSGIAHMLEHLNFKSTKNLKAGEFDKIVKRFGGVSNASTSFDITRYFIKTSQANLDKSLELFAETMGSLNLKEDEFLPERQVVAEERRWRTDNSPIGMLYFRFFNTAYVYHPYHWTPIGFMDDIQNWTLKDIKKFHSLYYQPKNAIVLVVGDVNSQKVFELSKKHFESLKN	failed
MEDEPGSENEADTIVASPLAKWRIEFSKSFQNYLDRSAPNIVRRWLVTLVAAVIYIYRVYSVYGYFVISYGLATYILNLLIGFLSPKVDPELEALDPDSLPVDESDEYKPFVRRLPEFKFWYAATKAFVVAFVMTFFSFLDVPVFWPILLCYWLVLYSLTMKRLIVHMFKYRYFPFDVRKPVKLLKFLVNSVLTFLRLKKQIQIGHHTRRTVWTRVYLLDFLDIGLANIHRVYAQLHLQQQQNIVKDIAMRDYWRDSIRQFPRKYLFITYQRFDEKSFLVSANHPKSAMEATTRILSTSSALNRLLLLSKLNLKSDPRNINSTNQLLHNAVTRKSSISAARIRCSSLPANANLFRSLFFLTSTFRLENTAVHANPFRSEPNDGVAVWNRAPRIVNGGGNAAIFGGNEGKETTVVLLGWLGAKAKHLRRYVEWYNSRGINAVTFTVDVRDLLRLDLGRRLERRIAEFGNELVNWVSEKEDDGREKCLVFHSFSNTGWLVYGALLESFIGRQDLVERIKGCIIDSGGADPLDTKVCSLFHVTKSFKCYSMVSPLLQDLVLEVEMSILL	failed
MQGIKRKLVYVTAYELIGMSISTLGLALLAGSTPTTTGPLAVVITTVAVTWNFIYNCLFEFWERRQAVRGRSIARRVAHAIGFQLTLVVYLIPLIAWWMGISLLEAFWLDLALIVLIPCYTFLFNWAFDRLFGLPTSALPAGEAASV	failed
MTTNTIMEQEARTAPQKIAEQLLANDAITESLGSVLREFKPKFVMIVGRGSSDHAGVFAKYLFEIEASIPTFAAAPSVASVYGKTLKLAGGLVIVISQSGRSPDILAQARMAKNAGAFCVALVNDETAPIKDIVDVVIPLRAGEEKAVAATKSYLATLSALLQVAAKWTQNESLVEAVNSLPQALQAAVDAEPQLRAGSLTDVKNLVVLGRGFGYAVSKEIALKLKEVCAIHAEAFSSAEFLHGPVTLVEKKLSILDVCIRDESYGSHVEQIANVKQRGANLIHLHQTSADIHPRIAPLALLQRFYIDVAAVAIALGINPDKPAGLKKVTQTL	not failed
MLNGLWLGFFLVAAVSAMAQWLVGGNAGIFAAMVESIFAMAKLSVEVMVLLFGTLTLWLGFLKIAEKAGIVEWLAKVLGPLFARLMPEVPPGHPALGLITMNFAANGLGLDNAATPIGLKAMRALQELNPGSTTASNAQILFLVLNASSLTLLPVTVFMYRAQQGAPDPTMVFLPILLATSVSTLVGLLSVAVMQRLRLWDPVVLAYFIPGALLLGGFMAFLGTLSAAALASLSSLLGNLTLFGVIMLFLVVGALKRVKVYEAFVEGATEGFDVAKSLLPYLVAMLVAVGVLRASGALELALDGIRHAVSWMGLDTRFVEGLPTALVKPFSGSAARAMLIETMQTQGVDSFPALVAATIQGSTETTFYVLAVYFGAVGIQRVRHAVGCALLAEFSGVVAAIFVCYWFFA	failed
CSEVNVVKERPKTDEHKSYSCSFKGCTDVELVAVICPYCEKNFCLRHRHQSDHDCEKLEVAKPRMAATQKLVR	not failed
MDALTVGELRRRVHALVLGKRQRVYSGAMFLVEVVHHPELSAMLGLEDNKLLLAMIAQRLQMQSDYFQVARHSSDSFMVWAPDLDPRSARDVAPEVLDALSQPYELRGQPLIVGFRLSGALYAQHGACFDELERSLHIAMLHLDESAGAAWNMFEPSMLEHQRHYQGLEHHHHHH	not failed
MFLSRPLVRIASAADRFLHGETEVKIPVKHDDEIGRLARAFNYLSEEIVRLTRKEEWLREVLSSIREAIIVTNASGEIVLANPAASRLFMIEAARKRSIPVTNIEDAAMRELFERVQKRQSGIYNEELTAMTSKGKRTLKVTAVPVMRRGALFDGTVLVINDVTRLRNLERTRRDFVSSVSHELRTPLASIKGYTETLLEGAMNDPENATAFLNIIHQEAEQLTALVNDVLDLSRIESGKIAYSFEPVDVKPQLEKTAALFEPAAARKGVRIELNAPEGLPAVLADRSYFDIVVRNLIDNAIKYVDAESGRVRVSAYATGDSVSIEVADNGIGIPQADLDRIFERFYRVDKARSRELGGTGLGLSIVKHIVLAHKGKVEVRSRINRGTTFTVTLPVAGA	failed
MKSQFLLSVKEHMLTRYYANKTIESYLFWIKRFIVFHQFAHPSKLSEDDVIRFLSHLAIDEKVAVKTQALALNAISFLYRDFFKTPLSLDMRFQKSLTEKKLPVVLTRDEVRRFV	failed
MSSMNANAENSESKPKSGNDPLDHEGGDSSAASEDPNKSKTVSSDDDLSETNKEKEEEDCEECWLSRYLKKGDCKDAFIEVDHCREVKDDGTNCRDARLKLITCMYTNVDYYGPFLAMQKEMRTQSLKELEQGEEAAAAAKKKEEEEETKGK	failed
MKILYIVLDGAADSPTSPRKTLEEASKPNIDSLGSHAVCGMVYTVKPGVAPQSDYATLSLLGYNPDEYYPGRGPLEAFGAGIEMRRGDIALRANFATVDPGTLRIIDRRVGRSLTSREARELASAVDGMELEDGEGTALFRATIGHRGVLVLRHRSKPLSDAISNTDPAYERRGRFSVALEKYEPFIKLSNPLVEDEAAVLAARMLNEFTLKAVEILDSHPVNLAREKRGLLKANAILSRDAGGLPEEKPPSFQERFGLRGASIVEMVVERGISRYIGLDDIRVEIEGRAREEVYREEAARAVEALETHDLVYVHLKGPDEPGHDGSFEGKIRAVEDIDKHFFAPLLDRLSSAGLEPAFVVTSDHATPWDVGAHSGDPVPLMISHQSIQ	failed
MIDIKVDPRLKSQRFRQEREADWRRLERLIGKVEKGSIADLSDEDLLAAPVLYRSALSALSVARATSLDRALIAYLETLCARAYFFVYGSRETLWGQLKGFFAGDWPAAVRGLWRETLVSAALMALGVMIAAWLVGHDPDWFYAFVPRELAGGRDPAATTEALAATLGGKDASGLTVFATFLFTHNAQVALLAFALGFALCVPTAGLVLYNGAMLGAFLALFASRGLGIELGGWLLIHGVTELFAVILAGAAGLRIGWAAAFPGERRRLDALAEAGRHAATVMGGVVVMLFLAGLLEGFGRQLITDTAARYGVAAATALMWGLYFYGPRRHG	failed
MGHHHHHHSHSLDSQKGQLVRGKVCEYSTDGAYIDIGGKAPAFLPKREAALHAVLDLEAHLPKDEELEFLVIRDQNEDGQVTVSLRALALEQAWTRVAELQEG	not failed
